Source: paper PMC5342261, “Boosting of HIV envelope CD4 binding site antibodies with long variable heavy third complementarity determining region in the randomized double blind RV305 HIV-1 vaccine trial” (PLoS Pathogens, 2017)

B1: VRC01 (antibody, V domains shown)
VH: QVQLVQSGGQMKKPGESMRISCRASGYEFIDCTLNWIRLAPGKRPEWMGWLKPRGGAVNYARPLQGRVTMTRDVYSDTAFLELRSLTVDDTAVYFCTRGKNCDYNWDFEHWGRGTPVIVSS
VL: EIVLTQSPGTLSLSPGETAIISCRTSQYGSLAWYQQRPGQAPRLVIYSGSTRAAGIPDRFSGSRWGPDYNLTISNLESGDFGVYYCQQYEFFGQGTKVQVD
notes: also called CD4 bs bnAb VRC01
B2: DH576 Unmutated Common Ancestor (UCA) (antibody, V domains shown)
VH: QVQLVESGGGVVQPGRSLRLSCAASGFTFSSYGMHWVRQAPGKGLEWVAVISYDGSNKYYADSVKGRFTISRDNSKNTLYLQMNSLRAEDTAVYYCARDRARSSGYFGGIYYYYYGMDVWGQGTTVTVSS
VL: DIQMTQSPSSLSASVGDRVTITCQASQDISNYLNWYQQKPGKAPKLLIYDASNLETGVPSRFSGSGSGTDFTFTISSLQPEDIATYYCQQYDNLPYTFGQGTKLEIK
notes: also called DH576 UCA; UCA of DH576; source: recombinantly expressed

What was measured:
AE.A244gp120 [1] = target: AE.A244gp120 (HIV-1); test: ELISA; blocking ELISA; AE.A244gp120 on the plate; mAbs diluted 3-fold from 100 ug/mL added for 1 h, wash, biotinylated VRC01 or CH31 for 1 h, streptavidin-HRP; conditions: both partners purified
AE.A244gp120 [2] = target: AE.A244gp120 (HIV-1); test: SPR; conditions: both partners purified

| Binder | binding result (AE.A244gp120 [1]) | binding result (AE.A244gp120 [2]) |
| --- | --- | --- |
| B1 | binds |  |
| B2 |  | binds |
